This test addresses T1, Type I IFN receptor (IFNAR) (UniProt P17181 28-557; P48551 27-515, limits assumed).
T1 sequence (looked up) 1: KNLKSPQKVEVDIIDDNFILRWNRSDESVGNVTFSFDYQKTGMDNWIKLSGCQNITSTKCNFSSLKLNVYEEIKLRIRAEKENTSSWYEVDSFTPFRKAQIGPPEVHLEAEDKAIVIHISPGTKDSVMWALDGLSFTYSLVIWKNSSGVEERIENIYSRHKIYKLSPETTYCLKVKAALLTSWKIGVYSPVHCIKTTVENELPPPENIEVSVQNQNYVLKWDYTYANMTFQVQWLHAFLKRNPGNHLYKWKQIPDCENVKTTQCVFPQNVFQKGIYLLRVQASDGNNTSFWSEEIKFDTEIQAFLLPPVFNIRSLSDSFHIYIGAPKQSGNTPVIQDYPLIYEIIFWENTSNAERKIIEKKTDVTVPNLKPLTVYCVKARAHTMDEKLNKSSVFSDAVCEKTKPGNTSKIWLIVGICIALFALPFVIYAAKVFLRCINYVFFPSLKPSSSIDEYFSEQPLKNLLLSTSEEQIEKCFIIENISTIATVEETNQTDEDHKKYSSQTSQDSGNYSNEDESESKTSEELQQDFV
T1 sequence (looked up) 2: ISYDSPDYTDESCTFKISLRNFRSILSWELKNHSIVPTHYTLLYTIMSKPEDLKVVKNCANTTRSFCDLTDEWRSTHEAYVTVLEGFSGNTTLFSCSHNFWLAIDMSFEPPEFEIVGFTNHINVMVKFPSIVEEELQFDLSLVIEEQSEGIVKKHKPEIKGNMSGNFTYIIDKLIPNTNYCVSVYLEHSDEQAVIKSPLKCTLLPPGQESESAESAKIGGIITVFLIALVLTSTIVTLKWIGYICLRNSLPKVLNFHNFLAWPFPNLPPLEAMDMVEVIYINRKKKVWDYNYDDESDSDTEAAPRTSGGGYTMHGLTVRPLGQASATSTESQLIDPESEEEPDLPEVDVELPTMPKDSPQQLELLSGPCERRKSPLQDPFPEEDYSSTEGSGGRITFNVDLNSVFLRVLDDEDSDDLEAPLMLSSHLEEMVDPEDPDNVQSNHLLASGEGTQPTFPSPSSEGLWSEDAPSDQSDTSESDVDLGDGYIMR
The test is described as follows: cell-based or functional assay.

B1: anti-PD-L1 Ab-con-IFN-α heterodimeric fusion molecule (FP-19), con-IFN-α (R150A), G8 linker (other)
light: DIQMTQSPSSVSASVGDRVTITCKTSQDVNTAVAWYQQKPGQAPRLLIYWASTRHTGVPDRFSGSGSGTDFTLTISSLQAEDVAVYYCQQHYNTPLTFGGGTKLEIKRTVAAPSVFIFPPSDEQLKSGTASVVCLLNNFYPREAKVQWKVDNALQSGNSQESVTEQDSKDSTYSLSSTLTLSKADYEKHKVYACEVTHQGLSSPVTKSFNRGEC
heavy 1: QMQLVQSGAEVKKTGSSVKVSCKASGYTFTSYSINWVRQAPGKGLEWVAYFYVGNGYTDYNEKFKGRVTMTRDTSTSTVYMELSSLRSEDTAVYYCARGGLPYYFDYWGQGTLVTVSSASTKGPSVFPLAPCSRSTSESTAALGCLVKDYFPEPVTVSWNSGALTSGVHTFPAVLQSSGLYSLSSVVTVPSSSLGTKTYTCNVDHKPSNTKVDKRVESKYGPPCPPCPAPEFLGGPSVFLFPPKPKDTLMISRTPEVTCVVVDVSQEDPEVQFNWYVDGVEVHNAKTKPREEQFNSTYRVVSVLTVLHQDWLNGKEYKCKVSNKGLPSSIEKTISKAKGQPREPQVCTLPPSQEEMTKNQVSLSCAVKGFYPSDIAVEWESNGQPENNYKTTPPVLDSDGSFFLVSRLTVDKSRWQEGNVFSCSVMHEALHNHYTQKSLSLSLGGGGGGGGGCDLPQTHSLGNRRALILLAQMRRISPFSCLKDRHDFGFPQEEFDGNQFQKAQAISVLHEMIQQTFNLFSTKDSSAAWDESLLEKFYTELYQQLNDLEACVIQEVGVEETPLMNVDSILAVKKYFQRITLYLTEKKYSPCAWEVVRAEIMASFSLSTNLQERLRRKE
heavy 2: QMQLVQSGAEVKKTGSSVKVSCKASGYTFTSYSINWVRQAPGKGLEWVAYFYVGNGYTDYNEKFKGRVTMTRDTSTSTVYMELSSLRSEDTAVYYCARGGLPYYFDYWGQGTLVTVSSASTKGPSVFPLAPCSRSTSESTAALGCLVKDYFPEPVTVSWNSGALTSGVHTFPAVLQSSGLYSLSSVVTVPSSSLGTKTYTCNVDHKPSNTKVDKRVESKYGPPCPPCPAPEFLGGPSVFLFPPKPKDTLMISRTPEVTCVVVDVSQEDPEVQFNWYVDGVEVHNAKTKPREEQFNSTYRVVSVLTVLHQDWLNGKEYKCKVSNKGLPSSIEKTISKAKGQPREPQVYTLPPCQEEMTKNQVSLWCLVKGFYPSDIAVEWESNGQPENNYKTTPPVLDSDGSFFLYSRLTVDKSRWQEGNVFSCSVMHEALHNHYTQKSLSLSLG
For the molecule B1, the “EC50 ratio1 (EC50 of FP/EC50 of IFN-α2b) on PD-L1-negative cells; IFN-α reporter assay (SEAP), PD-L1 blocked with REMD290” value amounted to 33.9 fold.

B2: anti-PD-L1 Ab-con-IFN-α heterodimeric fusion molecule (FP-20), con-IFN-α (A146D and R150A), G8 linker (other)
light: DIQMTQSPSSVSASVGDRVTITCKTSQDVNTAVAWYQQKPGQAPRLLIYWASTRHTGVPDRFSGSGSGTDFTLTISSLQAEDVAVYYCQQHYNTPLTFGGGTKLEIKRTVAAPSVFIFPPSDEQLKSGTASVVCLLNNFYPREAKVQWKVDNALQSGNSQESVTEQDSKDSTYSLSSTLTLSKADYEKHKVYACEVTHQGLSSPVTKSFNRGEC
heavy 1: QMQLVQSGAEVKKTGSSVKVSCKASGYTFTSYSINWVRQAPGKGLEWVAYFYVGNGYTDYNEKFKGRVTMTRDTSTSTVYMELSSLRSEDTAVYYCARGGLPYYFDYWGQGTLVTVSSASTKGPSVFPLAPCSRSTSESTAALGCLVKDYFPEPVTVSWNSGALTSGVHTFPAVLQSSGLYSLSSVVTVPSSSLGTKTYTCNVDHKPSNTKVDKRVESKYGPPCPPCPAPEFLGGPSVFLFPPKPKDTLMISRTPEVTCVVVDVSQEDPEVQFNWYVDGVEVHNAKTKPREEQFNSTYRVVSVLTVLHQDWLNGKEYKCKVSNKGLPSSIEKTISKAKGQPREPQVCTLPPSQEEMTKNQVSLSCAVKGFYPSDIAVEWESNGQPENNYKTTPPVLDSDGSFFLVSRLTVDKSRWQEGNVFSCSVMHEALHNHYTQKSLSLSLGGGGGGGGGCDLPQTHSLGNRRALILLAQMRRISPFSCLKDRHDFGFPQEEFDGNQFQKAQAISVLHEMIQQTFNLFSTKDSSAAWDESLLEKFYTELYQQLNDLEACVIQEVGVEETPLMNVDSILAVKKYFQRITLYLTEKKYSPCAWEVVRDEIMASFSLSTNLQERLRRKE
heavy 2: QMQLVQSGAEVKKTGSSVKVSCKASGYTFTSYSINWVRQAPGKGLEWVAYFYVGNGYTDYNEKFKGRVTMTRDTSTSTVYMELSSLRSEDTAVYYCARGGLPYYFDYWGQGTLVTVSSASTKGPSVFPLAPCSRSTSESTAALGCLVKDYFPEPVTVSWNSGALTSGVHTFPAVLQSSGLYSLSSVVTVPSSSLGTKTYTCNVDHKPSNTKVDKRVESKYGPPCPPCPAPEFLGGPSVFLFPPKPKDTLMISRTPEVTCVVVDVSQEDPEVQFNWYVDGVEVHNAKTKPREEQFNSTYRVVSVLTVLHQDWLNGKEYKCKVSNKGLPSSIEKTISKAKGQPREPQVYTLPPCQEEMTKNQVSLWCLVKGFYPSDIAVEWESNGQPENNYKTTPPVLDSDGSFFLYSRLTVDKSRWQEGNVFSCSVMHEALHNHYTQKSLSLSLG
Consider B2, for which the “EC50 ratio1 (EC50 of FP/EC50 of IFN-α2b) on PD-L1-negative cells; IFN-α reporter assay (SEAP), PD-L1 blocked with REMD290” value was 1140 fold.

The record behind these values is US20250145680A1 (REMD BIOTHERAPEUTICS, published 2025).
